For experiment [1], the target named is T1, cynomolgus BTLA (analyte in Bio-Layer Interferometry) (cynomolgus, UniProt A0A2K5W7M7 31-151).
T1 construct: also called Cyno BTLA
Nature of the experiment: Bio-Layer Interferometry (Octet), antibody captured by anti-human-Fc, BTLA in solution, 1:1 model.

The target in experiment [2] is recombinant human BTLA (human, UniProt Q7Z6A9 31-151, limits assumed). The description is as above.
The target in experiment [3] is T2, cynoBTLA-human Fc (cynomolgus, UniProt A0A2K5W7M7 31-151).
T2 construct: not shown: human Fc
T2 sequence (A0A2K5W7M7 entry or part of it): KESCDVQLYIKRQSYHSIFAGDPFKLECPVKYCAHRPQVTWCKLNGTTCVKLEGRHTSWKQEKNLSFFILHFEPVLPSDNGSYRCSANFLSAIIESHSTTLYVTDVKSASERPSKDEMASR
Briefly: blocking ELISA: cynoBTLA-human Fc binding to coated human HVEM-ratIgG2a.

The target of experiment [4] is T3, cynomolgus BTLA expressed on HEK-293 cells (cynomolgus, UniProt A0A2K5W7M7 31-289).
T3 construct: whole, on cells; also called Cyno BTLA
T3 sequence (A0A2K5W7M7 entry or part of it): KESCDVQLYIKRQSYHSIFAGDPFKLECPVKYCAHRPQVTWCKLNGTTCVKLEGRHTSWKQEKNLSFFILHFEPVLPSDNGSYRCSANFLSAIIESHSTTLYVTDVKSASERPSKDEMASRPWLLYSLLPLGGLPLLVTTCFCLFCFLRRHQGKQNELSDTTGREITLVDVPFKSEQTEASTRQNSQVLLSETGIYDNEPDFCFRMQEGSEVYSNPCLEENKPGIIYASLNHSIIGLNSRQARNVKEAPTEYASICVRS
Nature of the experiment: flow cytometry (MFI) on HEK 293 cells expressing BTLA.

For experiment [5], the target named is T4, human BTLA expressed on HEK-293 cells (human, UniProt Q7Z6A9 31-289).
T4 construct: whole, on cells
Described as above.

For experiment [6], the target named is T5, human BTLA(ECD)-HIS (human, UniProt Q7Z6A9 31-157).
T5 construct: extracellular domain; not shown: HIS tag
Nature of the experiment: ELISA, BTLA(ECD)-HIS coated, chemiluminescence (RLU).

The target in experiment [7] is T6, cynomolgus BTLA(ECD)-HIS (cynomolgus, UniProt A0A2K5W7M7 31-157).
T6 construct: extracellular domain; also called Cyno BTLA; not shown: HIS tag
T6 sequence (A0A2K5W7M7 entry or part of it): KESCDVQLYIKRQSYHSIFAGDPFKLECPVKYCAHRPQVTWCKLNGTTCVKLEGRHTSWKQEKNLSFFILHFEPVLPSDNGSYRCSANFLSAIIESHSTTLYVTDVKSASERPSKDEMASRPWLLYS
The experiment is described as above.

Experiment [8] concerns the target T7, human BTLA-human Fc (human, UniProt Q7Z6A9 31-151, limits assumed).
T7 construct: not shown: human Fc
Briefly: blocking ELISA: BTLA-human Fc binding to coated human HVEM-ratIgG2a.

B1: anti-BTLA antibody 15-C19A (antibody, V domains shown)
VH: QVQLQESGPGLVKPSETLSLTCTVSGGSISSYYWSWIRQPPGKGLEWIGYISYSGSTNYNPSLKSRVTISADTSKNQFSLKLSSVTAADTAVYYCARDFYYGMDVWGQGTTVTVSS
VL: AIQLTQSPSSLSASVGDRVTITCRASQGISSALAWYQQKPGKAPKLLIYDASSLESGVPSRFSGSGSGTDFTLTISSLQPEDFATYYCHQFDYYPTFGGGTKVEIK
B1: the Kd in experiment [1] stood at 0.1 nM; in experiment [2], 144 nM. Besides, the figures for the IC50 in experiment [3] and in experiment [8] were 2.4 nM and 3.5 nM, respectively. For the same molecule, the EC50 stood at 4.4 nM in experiment [4], 5.5 nM in experiment [5], 0.8 nM in experiment [6] and 1.4 nM in experiment [7].

These data come from US20230340123A1 (published 2023).
